# T1: His-tagged human TIGIT (human, UniProt Q495A1 22-141)
# T1 construct: SPR analyte; also called human TIGIT protein; not shown: His tag
# T1 sequence: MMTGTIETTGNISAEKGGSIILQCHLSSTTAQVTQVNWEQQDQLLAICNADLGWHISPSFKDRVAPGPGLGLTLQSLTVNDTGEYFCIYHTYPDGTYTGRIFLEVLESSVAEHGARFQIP
# Columns and labels:
# His-tagged human TIGIT [1] = target: T1, His-tagged human TIGIT; assay: SPR experiment 1, IgG from HEK293 supernatant captured
# His-tagged human TIGIT [2] = target: T1, His-tagged human TIGIT; assay: SPR experiment 2, IgG from HEK293 supernatant captured
# His-tagged human TIGIT [3] = target: T1, His-tagged human TIGIT; assay: as above; remark: listed apart in the source
Binder,Kd (His-tagged human TIGIT [1]),koff (His-tagged human TIGIT [1]),kon (His-tagged human TIGIT [1]),Kd (His-tagged human TIGIT [3]),koff (His-tagged human TIGIT [3]),kon (His-tagged human TIGIT [3]),other results
"humanized TIGIT-6 antibody 6VH6 + 6VL1 (antibody, V domains shown, Full-length IgG, tested as HEK293 supernatant) VH: QVQLVQSGAEVKKPGASVKVSCKASGYTITENTMHWVRQAPGQRLEWIGGINPNNGGTSYNQQFKGRATLTVDTSASTAYMELSSLRSEDTAVYYCTRSSYYRYDLDYWGQGTTVTVSS VL: DIQMTQSPSSLSASVGDRVTITCKASQDVKTALAWYQQKPGKAPKLLIYSASYRYTGVPSRFSGSGSGTDFTFTISSLQPEDIATYYCHQHYTTPWTFGGGTKLEIK",0.3 nM,0.00014 s⁻¹,470000 M⁻¹ s⁻¹,–,–,–,–
"humanized TIGIT-6 antibody 6VH6.M3 + 6VL1.M1 (antibody, V domains shown, Full-length IgG, tested as HEK293 supernatant) VH: QVQLVQSGAEVKKPGASVKVSCKASGYTITENTMHWVRQAPGQRLEWIGGINPNNGGTSYSQKFQGRATLTVDTSASTAYMELSSLRSEDTAVYYCTRSSYYRYDLDYWGQGTTVTVSS VL: DIQMTQSPSSLSASVGDRVTITCQASQDIKTALAWYQQKPGKAPKLLIYSASYRYTGVPSRFSGSGSGTDFTFTISSLQPEDIATYYCHQHYTTPWTFGGGTKLEIK",–,–,–,–,–,–,Kd (His-tagged human TIGIT [2]): 0.5 nM; koff (His-tagged human TIGIT [2]): 0.00016 s⁻¹; kon (His-tagged human TIGIT [2]): 320000 M⁻¹ s⁻¹
"humanized TIGIT-6 antibody 6VH6.M1 + 6VL1 (antibody, V domains shown, Full-length IgG, tested as HEK293 supernatant) VH: QVQLVQSGAEVKKPGASVKVSCKASGYTFTENAMHWVRQAPGQRLEWIGGINPNNGGTSYNQQFKGRATLTVDTSASTAYMELSSLRSEDTAVYYCTRSSYYRYDLDYWGQGTTVTVSS VL: DIQMTQSPSSLSASVGDRVTITCKASQDVKTALAWYQQKPGKAPKLLIYSASYRYTGVPSRFSGSGSGTDFTFTISSLQPEDIATYYCHQHYTTPWTFGGGTKLEIK",0.63 nM,0.00026 s⁻¹,410000 M⁻¹ s⁻¹,–,–,–,–
"humanized TIGIT-6 antibody 6VH5 + 6VL1 (antibody, V domains shown, Full-length IgG, tested as HEK293 supernatant) VH: QVQLVQSGAEVKKPGASVKVSCKASGYTITENTMHWVRQAPGQRLEWIGGINPNNGGTSYNQQFKGRATLTRDTSASTAYMELSSLRSEDTAVYYCTRSSYYRYDLDYWGQGTTVTVSS VL: DIQMTQSPSSLSASVGDRVTITCKASQDVKTALAWYQQKPGKAPKLLIYSASYRYTGVPSRFSGSGSGTDFTFTISSLQPEDIATYYCHQHYTTPWTFGGGTKLEIK",0.35 nM,0.00011 s⁻¹,310000 M⁻¹ s⁻¹,–,–,–,–
"humanized TIGIT-6 antibody 6VH6 + 6VL1.M1 (antibody, V domains shown, Full-length IgG, tested as HEK293 supernatant) VH: QVQLVQSGAEVKKPGASVKVSCKASGYTITENTMHWVRQAPGQRLEWIGGINPNNGGTSYNQQFKGRATLTVDTSASTAYMELSSLRSEDTAVYYCTRSSYYRYDLDYWGQGTTVTVSS VL: DIQMTQSPSSLSASVGDRVTITCQASQDIKTALAWYQQKPGKAPKLLIYSASYRYTGVPSRFSGSGSGTDFTFTISSLQPEDIATYYCHQHYTTPWTFGGGTKLEIK",0.24 nM,0.00013 s⁻¹,530000 M⁻¹ s⁻¹,–,–,–,–
"humanized TIGIT-6 antibody 6VH6.M4 + 6VL1 (antibody, V domains shown, Full-length IgG, tested as HEK293 supernatant) VH: QVQLVQSGAEVKKPGASVKVSCKASGYTITENTMHWVRQAPGQRLEWIGGINPNQGGTSYSQKFQGRATLTVDTSASTAYMELSSLRSEDTAVYYCTRSSYYRYDLDYWGQGTTVTVSS VL: DIQMTQSPSSLSASVGDRVTITCKASQDVKTALAWYQQKPGKAPKLLIYSASYRYTGVPSRFSGSGSGTDFTFTISSLQPEDIATYYCHQHYTTPWTFGGGTKLEIK",0.65 nM,0.00015 s⁻¹,230000 M⁻¹ s⁻¹,–,–,–,–
"humanized TIGIT-6 antibody 6VH6.M3 + 6VL1 (antibody, V domains shown, Full-length IgG, tested as HEK293 supernatant) VH: QVQLVQSGAEVKKPGASVKVSCKASGYTITENTMHWVRQAPGQRLEWIGGINPNNGGTSYSQKFQGRATLTVDTSASTAYMELSSLRSEDTAVYYCTRSSYYRYDLDYWGQGTTVTVSS VL: DIQMTQSPSSLSASVGDRVTITCKASQDVKTALAWYQQKPGKAPKLLIYSASYRYTGVPSRFSGSGSGTDFTFTISSLQPEDIATYYCHQHYTTPWTFGGGTKLEIK",0.35 nM,0.00012 s⁻¹,350000 M⁻¹ s⁻¹,–,–,–,–
"humanized TIGIT-19 antibody 19VH4 + 19VL1.M4 (antibody, V domains shown, Full-length IgG, tested as HEK293 supernatant) VH: QVQLVQSGAEVKKPGASVKVSCKASGYAFSRYSMYWVRQAPGQGLEWIAFIDPYNGGSTYNQRFRGKATLTVDTSISTAYMELSRLRSDDTAVYYCARGGDYGWYLGVWGQGTLVTVSS VL: DIQMTQSPSSLSASVGDRVTITCRPSENIYTYLSWYQQKPGKAPKLLIYNAKSLPSGVPSRFSGSGSGTDFTLTISSLQPEDFATYYCQHHYGNPLTFGQGTKVEIK",–,–,–,0.023 nM,2.7e-05 s⁻¹,1.2e+06 M⁻¹ s⁻¹,–
"humanized TIGIT-19 antibody 19VH4.M9 + 19VL1 (antibody, V domains shown, Full-length IgG, tested as HEK293 supernatant) VH: QVQLVQSGAEVKKPGASVKVSCKASGYTFTRYSMYWVRQAPGQGLEWIAFIDAYSGGSTYNQRFRGKATLTVDTSISTAYMELSRLRSDDTAVYYCARGGDYGWYLGVWGQGTLVTVSS VL: DIQMTQSPSSLSASVGDRVTITCRPSENIYTYLSWYQQKPGKAPKLLIYNAKTLPEGVPSRFSGSGSGTDFTLTISSLQPEDFATYYCQHHYGNPLTFGQGTKVEIK",–,–,–,0.22 nM,0.00023 s⁻¹,1.1e+06 M⁻¹ s⁻¹,–
"humanized TIGIT-19 antibody 19VH4 + 19VL1.M6 (antibody, V domains shown, Full-length IgG, tested as HEK293 supernatant) VH: QVQLVQSGAEVKKPGASVKVSCKASGYAFSRYSMYWVRQAPGQGLEWIAFIDPYNGGSTYNQRFRGKATLTVDTSISTAYMELSRLRSDDTAVYYCARGGDYGWYLGVWGQGTLVTVSS VL: DIQMTQSPSSLSASVGDRVTITCRASQNIYSYLSWYQQKPGKAPKLLIYNAKSLPSGVPSRFSGSGSGTDFTLTISSLQPEDFATYYCQHHYGNPLTFGQGTKVEIK",–,–,–,0.15 nM,0.00015 s⁻¹,1e+06 M⁻¹ s⁻¹,–
"humanized TIGIT-19 antibody 19VH4.M6 + 19VL1 (antibody, V domains shown, Full-length IgG, tested as HEK293 supernatant) VH: QVQLVQSGAEVKKPGASVKVSCKASGYTFTRYSMYWVRQAPGQGLEWIAFIDPYSGGSTYNQRFRGKATLTVDTSISTAYMELSRLRSDDTAVYYCARGGDYGWYLGVWGQGTLVTVSS VL: DIQMTQSPSSLSASVGDRVTITCRPSENIYTYLSWYQQKPGKAPKLLIYNAKTLPEGVPSRFSGSGSGTDFTLTISSLQPEDFATYYCQHHYGNPLTFGQGTKVEIK",–,–,–,0.2 nM,0.00021 s⁻¹,1e+06 M⁻¹ s⁻¹,–
"humanized TIGIT-19 antibody 19VH4.M7 + 19VL1 (antibody, V domains shown, Full-length IgG, tested as HEK293 supernatant) VH: QVQLVQSGAEVKKPGASVKVSCKASGYTFTRYSMYWVRQAPGQGLEWIAFIDPYSGGSTYAQKFQGKATLTVDTSISTAYMELSRLRSDDTAVYYCARGGDYGWYLGVWGQGTLVTVSS VL: DIQMTQSPSSLSASVGDRVTITCRPSENIYTYLSWYQQKPGKAPKLLIYNAKTLPEGVPSRFSGSGSGTDFTLTISSLQPEDFATYYCQHHYGNPLTFGQGTKVEIK",–,–,–,0.3 nM,0.00032 s⁻¹,1.1e+06 M⁻¹ s⁻¹,–
"humanized TIGIT-19 antibody 19VH4.M4 + 19VL1 (antibody, V domains shown, Full-length IgG, tested as HEK293 supernatant) VH: QVQLVQSGAEVKKPGASVKVSCKASGYAFSRYSMYWVRQAPGQGLEWIAFIDPYSGGSTYNQRFRGKATLTVDTSISTAYMELSRLRSDDTAVYYCARGGDYGWYLGVWGQGTLVTVSS VL: DIQMTQSPSSLSASVGDRVTITCRPSENIYTYLSWYQQKPGKAPKLLIYNAKTLPEGVPSRFSGSGSGTDFTLTISSLQPEDFATYYCQHHYGNPLTFGQGTKVEIK",–,–,–,0.12 nM,0.00013 s⁻¹,1.1e+06 M⁻¹ s⁻¹,–
"humanized TIGIT-19 antibody 19VH4 + 19VL1.M7 (antibody, V domains shown, Full-length IgG, tested as HEK293 supernatant) VH: QVQLVQSGAEVKKPGASVKVSCKASGYAFSRYSMYWVRQAPGQGLEWIAFIDPYNGGSTYNQRFRGKATLTVDTSISTAYMELSRLRSDDTAVYYCARGGDYGWYLGVWGQGTLVTVSS VL: DIQMTQSPSSLSASVGDRVTITCRASQSIYSYLSWYQQKPGKAPKLLIYNAKSLPSGVPSRFSGSGSGTDFTLTISSLQPEDFATYYCQHHYGNPLTFGQGTKVEIK",–,–,–,0.13 nM,0.00017 s⁻¹,1.3e+06 M⁻¹ s⁻¹,–
"humanized TIGIT-19 antibody 19VH4 + 19VL1.M5 (antibody, V domains shown, Full-length IgG, tested as HEK293 supernatant) VH: QVQLVQSGAEVKKPGASVKVSCKASGYAFSRYSMYWVRQAPGQGLEWIAFIDPYNGGSTYNQRFRGKATLTVDTSISTAYMELSRLRSDDTAVYYCARGGDYGWYLGVWGQGTLVTVSS VL: DIQMTQSPSSLSASVGDRVTITCRASQNIYTYLSWYQQKPGKAPKLLIYNAKSLPSGVPSRFSGSGSGTDFTLTISSLQPEDFATYYCQHHYGNPLTFGQGTKVEIK",–,–,–,0.081 nM,8.7e-05 s⁻¹,1.1e+06 M⁻¹ s⁻¹,–
"humanized TIGIT-19 antibody 19VH4.M5 + 19VL1 (antibody, V domains shown, Full-length IgG, tested as HEK293 supernatant) VH: QVQLVQSGAEVKKPGASVKVSCKASGYAFSRYSMYWVRQAPGQGLEWIAFIDPYNGGSTYAQKFQGKATLTVDTSISTAYMELSRLRSDDTAVYYCARGGDYGWYLGVWGQGTLVTVSS VL: DIQMTQSPSSLSASVGDRVTITCRPSENIYTYLSWYQQKPGKAPKLLIYNAKTLPEGVPSRFSGSGSGTDFTLTISSLQPEDFATYYCQHHYGNPLTFGQGTKVEIK",–,–,–,0.16 nM,0.0002 s⁻¹,1.3e+06 M⁻¹ s⁻¹,–
